Assay results from paper PMC12108899.

Target: hemocyanin from Macrobrachium acanthurus (Macrobrachium acanthurus)
Test: AUC; sedimentation velocity, HcMac at 100, 200 and 300 ug/mL, Tris-HCl 100 mmol/L with NaCl 50 mmol/L, pH 7.0, 20 °C, absorbance at 280 nm, SEDFIT c(S) and c(M); single 19S species of about 450 kDa; hexamer of monomeric subunits

Q: For “hemocyanin from Macrobrachium acanthurus (natural protein)”, which stoichiometry N is on record?
A: The stoichiometry N was 6.
